Laboratory results as given in PMC6742660, “Autoinhibition and activation mechanisms of the eukaryotic lipid flippase Drs2p-Cdc50p” (Nature Communications, 2019).

Molecular target: T1, Drs2p (S. cerevisiae, UniProt P39524 1-1355)
T1 construct: Drs2p, Saccharomyces cerevisiae, intact protein of 1355 residues; Co-purified with endogenous Cdc50p; Residues 196-212 of the N-terminal peptide and Glu1231-Ala1309 of the C-terminal peptide are ordered in the apo map; The last 46 residues are disordered; also called Drs2p ATPase; P4 ATPase subunit of the Drs2p-Cdc50p lipid flippase; not shown: triple FLAG, C-terminal, kept
T1 sequence (looked up): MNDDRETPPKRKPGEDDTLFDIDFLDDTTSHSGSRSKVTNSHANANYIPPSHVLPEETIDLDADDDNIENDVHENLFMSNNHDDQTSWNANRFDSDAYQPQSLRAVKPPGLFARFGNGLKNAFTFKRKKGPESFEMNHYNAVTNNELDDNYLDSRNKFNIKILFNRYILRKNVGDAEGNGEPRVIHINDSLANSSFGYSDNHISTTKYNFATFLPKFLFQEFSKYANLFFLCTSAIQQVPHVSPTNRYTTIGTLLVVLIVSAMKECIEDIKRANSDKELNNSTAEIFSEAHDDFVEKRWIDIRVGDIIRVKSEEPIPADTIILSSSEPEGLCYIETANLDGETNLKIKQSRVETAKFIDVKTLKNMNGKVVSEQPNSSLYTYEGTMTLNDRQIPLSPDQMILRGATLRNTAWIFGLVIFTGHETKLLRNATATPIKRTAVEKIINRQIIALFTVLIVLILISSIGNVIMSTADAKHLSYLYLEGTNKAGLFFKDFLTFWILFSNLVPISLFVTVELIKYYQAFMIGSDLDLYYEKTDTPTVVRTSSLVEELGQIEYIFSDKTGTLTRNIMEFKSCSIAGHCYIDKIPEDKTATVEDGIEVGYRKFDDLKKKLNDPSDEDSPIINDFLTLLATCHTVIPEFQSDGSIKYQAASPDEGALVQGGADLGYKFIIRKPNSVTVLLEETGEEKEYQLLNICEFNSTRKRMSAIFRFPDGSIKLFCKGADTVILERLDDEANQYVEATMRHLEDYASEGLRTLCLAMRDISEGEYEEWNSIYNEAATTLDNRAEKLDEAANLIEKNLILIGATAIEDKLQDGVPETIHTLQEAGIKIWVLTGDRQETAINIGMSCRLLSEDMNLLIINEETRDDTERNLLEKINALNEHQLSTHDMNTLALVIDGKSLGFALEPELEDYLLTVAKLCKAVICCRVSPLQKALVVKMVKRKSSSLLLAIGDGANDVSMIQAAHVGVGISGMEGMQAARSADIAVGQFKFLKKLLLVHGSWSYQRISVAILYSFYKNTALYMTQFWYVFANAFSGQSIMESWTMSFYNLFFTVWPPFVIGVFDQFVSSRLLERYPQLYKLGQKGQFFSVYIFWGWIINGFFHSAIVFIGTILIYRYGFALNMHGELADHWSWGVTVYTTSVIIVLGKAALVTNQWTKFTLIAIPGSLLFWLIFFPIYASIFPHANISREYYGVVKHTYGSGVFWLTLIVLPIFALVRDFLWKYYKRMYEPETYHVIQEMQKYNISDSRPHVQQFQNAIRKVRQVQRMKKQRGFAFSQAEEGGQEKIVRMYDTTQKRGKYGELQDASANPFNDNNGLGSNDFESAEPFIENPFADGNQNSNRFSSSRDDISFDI
Assay: cryo-EM structure; endogenous Drs2p-Cdc50p complex as purified, apo autoinhibited form, 3 mg/mL; 0.01% LMNG, 0.001% CHS, 150 mM NaCl, 20 mM Tris-HCl pH 7.4, 1 mM MgCl2, 1 mM MnCl2; 2.8 Å map
Details: both partners purified

binding result: binds
B1: Cdc50p (natural protein, S. cerevisiae, UniProt P25656 1-391, looked up)
chain: MVSLFKRGKAPPLTKEGPTSKKPPNTAFRQQRLKAWQPILSPQSVLPLLIFVACIFTPIGIGLIVSATKVQDLTIDYSHCDTKASTTAFEDIPKKYIKYHFKSKVENKPQWRLTENENGEQSCELQFEIPNDIKKSIFIYYKITNFYQNHRRYVQSFDTKQILGEPIKKDDLDTSCSPIRSREDKIIYPCGLIANSMFNDTFSQVLSGIDDTEDYNLTNKHISWSIDRHRFKTTKYNASDIVPPPNWMKKYPDGYTDENLPDIHTWEEFQVWMRTAAFPKFYKLTLKNESASLPKGKYQMNIELNYPISLFGGTKSFVLTTNGAIGGRNMSLGVLYLIVAGLCALFGIIFLVKLIFQPRAMGDHTYLNFDDEENEDYEDVHAENTTLREIL
modifications: N-glycans at Asn-199, Asn-216 and Asn-288; disulfide bonds Cys-80 with Cys-123 and Cys-176 with Cys-190
notes: Cdc50p, Saccharomyces cerevisiae, endogenous untagged subunit of the Drs2p-Cdc50p complex; The first half of the 40-residue N-terminal peptide and the 31-residue C-terminal peptide are disordered in the map
